Reference: PMC12329595, “Engineered bacteriophytochrome heterodimers for research and applications” (The Journal of Biological Chemistry, 2025)
Read-outs that look alike come from different tables or passages of the source. One block for each molecule: values may come before it.

B1: DrBphPRR (full-length DrBphP E148R/E306R) (natural protein)
chain: MSRDPLPFFPPLYLGGPEITTENCEREPIHIPGSIQPHGALLTADGHSGEVLQMSLNAATFLGQEPTVLRGQTLAALLPEQWPALQAALPPGCPDALQYRATLDWPAAGHLSLTVHRVGELLILEFEPTEAWDSTGPHALRNAMFALRSAPNLRALAEVATQTVRELTGFDRVMLYKFAPDATGEVIAEARREGLHAFLGHRFPASDIPAQARALYTRHLLRLTADTRAAAVPLDPVLNPQTNAPTPLGGAVLRATSPMHMQYLRNMGVGSSLSVSVVVGGQLWGLIACHHQTPYVLPPDLRTTLRYLGRLLSLQVQVKEAADVAAFRQSLREHHARVALAAAHSLSPHDTLSDPALDLLGLMRAGGLILRFEGRWQTLGEVPPAPAVDALLAWLETQPGALVQTDALGQLWPAGADLAPSAAGLLAISVGEGWSECLVWLRPELRLEVAWGGATPDQAKDDLGPRHSFDTYLEEKRGYAEPWHPGEIEEAQDLRDTLTGALGERLSVIRDLNRALTQSNAEWRQYGFVISHHMQEPVRLISQFAELLTRQPRAQDGSPDSPQTERITGFLLRETSRLRSLTQDLHTYTALLSAPPPVRRPTPLGRVVDDVLQDLEPRIADTGASIEVAPELPVIAADAGLLRDLLLHLIGNALTFGGPEPRIAVRTERQGAGWSIAVSDQGAGIAPEYQERIFLLFQRLGSLDEALGNGLGLPLCRKIAELHGGTLTVESAPGEGSTFRCWLPDAGPLPGAADA
modifications: biliverdin IXα covalently linked to a conserved cysteine (holoprotein)
notes: Deinococcus radiodurans strain R1 bacteriophytochrome DrBphP, full length; source: E. coli BL21 (DE3), purified (Ni-NTA, SEC)

Tests used:
[1] = biological target: DrPSMRR (DrPSM E148R/E306R) (Deinococcus radiodurans strain R1); test: ITC; MicroCal PEAQ-ITC, 25 °C, darkness (Pr state), 30 mM Tris/HCl, 150 mM NaCl, pH 8.0; cell 9 to 18 μM, syringe 100 to 280 μM; single-site fit; individual components injected into buffer and vice versa as background
[2] = biological target: DrPSMRR (DrPSM E148R/E306R) (Deinococcus radiodurans strain R1); test: as above; remark: listed apart in the source
[3] = biological target: DrPSMRE (DrPSM E306R/R310E) (Deinococcus radiodurans strain R1); test: as above
[4] = biological target: DrPSMRE (DrPSM E306R/R310E) (Deinococcus radiodurans strain R1); test: as above; remark: listed apart in the source
[5] = biological target: the molecule itself; test: SEC; HPLC, bioZen 1.8 μm SEC-3 column, 30 mM Tris/HCl, 150 mM NaCl, pH 8.0 with 10% acetonitrile, 25 °C; full-length DrBphP and DrF1 variants and mixtures
[6] = biological target: B1; test: as above; conditions: both partners purified

Kd [3]: 12 nM
stoichiometry N [3]: 1
Kd [4]: 800 nM
Molecule: DrPSMER (DrPSM R141E/E148R) (domain or fragment)

binding result [6]: binds
B4: DrBphPEE (full-length DrBphP R141E/R310E) (natural protein)
chain: MSRDPLPFFPPLYLGGPEITTENCEREPIHIPGSIQPHGALLTADGHSGEVLQMSLNAATFLGQEPTVLRGQTLAALLPEQWPALQAALPPGCPDALQYRATLDWPAAGHLSLTVHRVGELLILEFEPTEAWDSTGPHALENAMFALESAPNLRALAEVATQTVRELTGFDRVMLYKFAPDATGEVIAEARREGLHAFLGHRFPASDIPAQARALYTRHLLRLTADTRAAAVPLDPVLNPQTNAPTPLGGAVLRATSPMHMQYLRNMGVGSSLSVSVVVGGQLWGLIACHHQTPYVLPPDLRTTLEYLGELLSLQVQVKEAADVAAFRQSLREHHARVALAAAHSLSPHDTLSDPALDLLGLMRAGGLILRFEGRWQTLGEVPPAPAVDALLAWLETQPGALVQTDALGQLWPAGADLAPSAAGLLAISVGEGWSECLVWLRPELRLEVAWGGATPDQAKDDLGPRHSFDTYLEEKRGYAEPWHPGEIEEAQDLRDTLTGALGERLSVIRDLNRALTQSNAEWRQYGFVISHHMQEPVRLISQFAELLTRQPRAQDGSPDSPQTERITGFLLRETSRLRSLTQDLHTYTALLSAPPPVRRPTPLGRVVDDVLQDLEPRIADTGASIEVAPELPVIAADAGLLRDLLLHLIGNALTFGGPEPRIAVRTERQGAGWSIAVSDQGAGIAPEYQERIFLLFQRLGSLDEALGNGLGLPLCRKIAELHGGTLTVESAPGEGSTFRCWLPDAGPLPGAADA
modifications: biliverdin IXα covalently linked to a conserved cysteine (holoprotein)
notes: as for B1

Second part, the molecule before the results:

Molecule: DrPSMEE (DrPSM R141E/R310E) (domain or fragment)
Kd [1]: 800 nM
stoichiometry N [1]: 1
Kd [2]: 12 nM

Molecule: B1
binding result [5]: binds

B2: DrBphPRE (full-length DrBphP E306R/R310E) (natural protein)
chain: MSRDPLPFFPPLYLGGPEITTENCEREPIHIPGSIQPHGALLTADGHSGEVLQMSLNAATFLGQEPTVLRGQTLAALLPEQWPALQAALPPGCPDALQYRATLDWPAAGHLSLTVHRVGELLILEFEPTEAWDSTGPHALRNAMFALESAPNLRALAEVATQTVRELTGFDRVMLYKFAPDATGEVIAEARREGLHAFLGHRFPASDIPAQARALYTRHLLRLTADTRAAAVPLDPVLNPQTNAPTPLGGAVLRATSPMHMQYLRNMGVGSSLSVSVVVGGQLWGLIACHHQTPYVLPPDLRTTLRYLGELLSLQVQVKEAADVAAFRQSLREHHARVALAAAHSLSPHDTLSDPALDLLGLMRAGGLILRFEGRWQTLGEVPPAPAVDALLAWLETQPGALVQTDALGQLWPAGADLAPSAAGLLAISVGEGWSECLVWLRPELRLEVAWGGATPDQAKDDLGPRHSFDTYLEEKRGYAEPWHPGEIEEAQDLRDTLTGALGERLSVIRDLNRALTQSNAEWRQYGFVISHHMQEPVRLISQFAELLTRQPRAQDGSPDSPQTERITGFLLRETSRLRSLTQDLHTYTALLSAPPPVRRPTPLGRVVDDVLQDLEPRIADTGASIEVAPELPVIAADAGLLRDLLLHLIGNALTFGGPEPRIAVRTERQGAGWSIAVSDQGAGIAPEYQERIFLLFQRLGSLDEALGNGLGLPLCRKIAELHGGTLTVESAPGEGSTFRCWLPDAGPLPGAADA
modifications: biliverdin IXα covalently linked to a conserved cysteine (holoprotein)
notes: as for B1
binding result [5]: binds

B3: Full-length phytochrome from Deinococcus radiodurans strain R1 (DrBphP), wild type (natural protein)
chain: MSRDPLPFFPPLYLGGPEITTENCEREPIHIPGSIQPHGALLTADGHSGEVLQMSLNAATFLGQEPTVLRGQTLAALLPEQWPALQAALPPGCPDALQYRATLDWPAAGHLSLTVHRVGELLILEFEPTEAWDSTGPHALRNAMFALESAPNLRALAEVATQTVRELTGFDRVMLYKFAPDATGEVIAEARREGLHAFLGHRFPASDIPAQARALYTRHLLRLTADTRAAAVPLDPVLNPQTNAPTPLGGAVLRATSPMHMQYLRNMGVGSSLSVSVVVGGQLWGLIACHHQTPYVLPPDLRTTLEYLGRLLSLQVQVKEAADVAAFRQSLREHHARVALAAAHSLSPHDTLSDPALDLLGLMRAGGLILRFEGRWQTLGEVPPAPAVDALLAWLETQPGALVQTDALGQLWPAGADLAPSAAGLLAISVGEGWSECLVWLRPELRLEVAWGGATPDQAKDDLGPRHSFDTYLEEKRGYAEPWHPGEIEEAQDLRDTLTGALGERLSVIRDLNRALTQSNAEWRQYGFVISHHMQEPVRLISQFAELLTRQPRAQDGSPDSPQTERITGFLLRETSRLRSLTQDLHTYTALLSAPPPVRRPTPLGRVVDDVLQDLEPRIADTGASIEVAPELPVIAADAGLLRDLLLHLIGNALTFGGPEPRIAVRTERQGAGWSIAVSDQGAGIAPEYQERIFLLFQRLGSLDEALGNGLGLPLCRKIAELHGGTLTVESAPGEGSTFRCWLPDAGPLPGAADA
modifications: biliverdin IXα covalently linked to a conserved cysteine (holoprotein)
notes: Deinococcus radiodurans strain R1 bacteriophytochrome DrBphP, full length (PSM and histidine kinase module); also called DrBphPWT; source: E. coli BL21 (DE3), purified (Ni-NTA, SEC)
binding result [5]: binds
